Eight molecules from patent US20150086562A1 (BIOATLA, published 2015) can be followed below.

Residue numbers refer to the chain shown, from its start.

T1: CD22 protein expressed on the surface of Daudi cells (human, UniProt P20273 20-847)
T1 construct: whole, on cells; also called human CD22; cell surface CD22
T1 sequence (looked up): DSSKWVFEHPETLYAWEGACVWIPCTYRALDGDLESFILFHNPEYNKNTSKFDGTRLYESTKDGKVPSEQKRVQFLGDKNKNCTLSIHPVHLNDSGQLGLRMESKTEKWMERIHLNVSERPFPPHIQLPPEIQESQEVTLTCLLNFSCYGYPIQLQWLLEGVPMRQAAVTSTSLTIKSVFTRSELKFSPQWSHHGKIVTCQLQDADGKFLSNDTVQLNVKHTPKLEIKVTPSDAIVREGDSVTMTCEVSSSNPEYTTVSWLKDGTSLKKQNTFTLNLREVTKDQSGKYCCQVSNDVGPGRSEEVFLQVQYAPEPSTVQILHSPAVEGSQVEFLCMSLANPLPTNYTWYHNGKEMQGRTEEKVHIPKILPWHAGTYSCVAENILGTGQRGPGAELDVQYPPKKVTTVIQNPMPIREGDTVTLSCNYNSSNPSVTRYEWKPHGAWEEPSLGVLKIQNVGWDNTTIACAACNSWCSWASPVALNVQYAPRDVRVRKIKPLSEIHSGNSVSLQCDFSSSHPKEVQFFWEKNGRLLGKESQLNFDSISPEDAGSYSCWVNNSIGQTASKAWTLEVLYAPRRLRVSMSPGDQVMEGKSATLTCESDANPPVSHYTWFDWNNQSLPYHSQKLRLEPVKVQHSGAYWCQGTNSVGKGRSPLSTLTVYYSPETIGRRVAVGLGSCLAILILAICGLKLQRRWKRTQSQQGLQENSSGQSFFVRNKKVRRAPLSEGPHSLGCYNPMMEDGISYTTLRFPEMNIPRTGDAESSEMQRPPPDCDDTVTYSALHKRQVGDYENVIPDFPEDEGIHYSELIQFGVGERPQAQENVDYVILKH

B1: VM1000 (antibody, V domains shown)
VH: QVQLVQSGAEVKKPGASVKVSCKASGYVFTSYWLHWIRQSPSRGLEWLGYINPRNDYTEYNRIFKGRLTISKDTSKNQVVLTMTNMDPVDTATYYCARRGITTFYWGQG
VL: EIVLTQSPATLSLSPGERATLSCKSSQSVLYSAVEKNYLAWYQQKPGKAPKLLIYWASTRERGVPSRFSGSGSGTDFTFTISSLQPEDIATYYCKQYLSSWTFGQG
notes: Humanized antibody with human constant region; also called anti-CD22 Mab clone VM1000
B2: VM1002 (antibody, V domains shown)
VH: EVQLVQSGAEVKKPGESLRISCKGSGYVFTSYWLHWVRQAPGQGLEWMGYINPRNDYTEYNRIFKGRVTITADKSTSTAYMELSSLRSEDTAVYYCARRGITTFYWGQG
VL: B1 VL with K48Q, K51R, V64I, S66D, F79L, S83R, Q85E, I89F, T91V
notes: Humanized antibody with human constant region; also called anti-CD22 Mab clone VM1002
B3: VM1011 (antibody, V domains shown)
VH: QVQLQESGPGLVKPSQTLSLTCTVSGYVFTSYWLHWIRQPPGKGLEWIGYINPRNDYTEYNRIFKGRVTITADKSTSTAYMELSSLRSEDTAVYYCARRGITTFYWGQG
VL: B1 VL with K48Q, K51R, V64I, S66D, F79L, S83R, Q85E, I89F, T91V
notes: Humanized antibody with human constant region; also called anti-CD22 Mab clone VM1011
B4: VM1004 (antibody, V domains shown)
VH: EVQLVQSGAEVKKPGATVKISCKVSGYVFTSYWLHWIRQSPSRGLEWLGYINPRNDYTEYNRIFKGRFVFSLDTSVSTAYLQICSLKAEDTAVYYCARRGITTFYWGQG
VL: B1 VL with V64I, S66D, F79L, S83R, Q85E, I89F, T91V
notes: Humanized antibody with human constant region; also called anti-CD22 Mab clone VM1004
B5: VM1003 (antibody, V domains shown)
VH: B4 VH
VL: B1 VL with K48Q, K51R, V64I, S66D, F79L, S83R, Q85E, I89F, T91V
notes: Humanized antibody with human constant region; also called anti-CD22 Mab clone VM1003
B6: VM1001 (antibody, V domains shown)
VH: B1 VH
VL: B1 VL with K48Q, K51R, V64I, S66D, F79L, S83R, Q85E, I89F, T91V
notes: Humanized antibody with human constant region; also called anti-CD22 Mab clone VM1001
B7: VM1006 (antibody, V domains shown)
VH: B4 VH with E1Q, T17S, I20V, V24A
VL: DIQMTQSPSSLSASVGDRVTITCKSSQSVLYSAVEKNYLAWYQQKPGKAPKLLIYWASTRERGIPDRFSGSGSGTDFTLTISRLEPEDFAVYYCKQYLSSWTFGQG
notes: Humanized antibody with human constant region; also called anti-CD22 Mab clone VM1006
B8: VM1007 (antibody, V domains shown)
VH: B2 VH with E1Q, E16A, L18V, R19K, I20V, G24A, P41R, G44R, M48I
VL: B7 VL with D1A, M4L, I64V, D66S, L79F, R83S, P86A, F89A, V91T
notes: Humanized antibody with human constant region; also called anti-CD22 Mab clone VM1007

The target of the first test is T1, CD22 protein expressed on the surface …. As to the kind of experiment: Quantitative confocal immunofluorescence of directly FITC-labelled antibody (5 ug/ml, 45 min on ice) on Daudi cells. paragraph 243 calls these 'RMF surface binding values'. The method, then:
Selected antiCD22 selected anti-CD22 Mab clones VM1000, VM1001, VM1002, VM1003, VM1004, VM1005, VM1006, VM1007, VM1008, VM1009, VM1010, VM1011, VM1012, VM1013, VM1014, and VM1015 of the invention were directly conjugated to F1TC using the Zenon labeling complex (Molecular Probes) using the manufacturer's recommended procedures. Approximately 1×10e7 Daudi cells were resuspended in PBS containing 5 ug/ml labeled anti-CD22 antibody and incubated for 45 minutes on ice. Cells then washed twice in PBS-FBS solution at 0 C. Cells were then incubated in RPMI 1640 media containing 10% FBS for varying periods at 37 C, harvested and washed in PBS at 0 C. The cells were then briefly fixed in 4% paraformaldehyde solution for 5 min at room temperature, then washed in PBS containing 0.05% Triton X-100. Cell pellets were collected by centrifugation and resupended in a minimal volume of FBS neat, and then applied to glass microscope slides. Prior to analysis, slides were treated with mounting fluid containing the nuclear stain DAPI, then coverslips were applied. Confocal images were recorded using an ACAS Ultima confocal microscope (Meridian Instruments, Inc., Okemos, Mich.) and represent 1-μm sections through the center of a focal plane using a 100× oil immersion objective.
The Anti-CD22 monoclonal antibodies selected clones VM1000, VM1001, VM1002, VM1003, VM1004, VM1005, VM1006, VM1007, VM1008, VM1009, VM1010, VM1011, VM1012, VM1013, VM1014, and VM1015 of the invention were analysed for their ability to be rapidly internalized into the intracellular compartment as judged by immunoflourescent signal on the cell surface versus the intracellular endo cytotic compartment. The antibodies of the invention were compared to BA006H, and humanized version of the murine monoclonal antibody LL2. In this example, FIG. 21A, the anti-CD22 antibodies of the invention bind to CD22 protein expressed on the surface of Daudi cells by approximately 20-fold compared to BA006H as judged by relative mean fluorescence (RMF), and are virtually completely internalized within the cell with 90 minutes, localizing predominantly to within the perinuclear golgi apparatus and associated lysozomes. Shown in FIG. 21B is a chart of the RMF surface binding values obtained in this manner for individual anti-CD22 antibodies of the invention.
Regarding B1, the “RMF (Daudi Internalization by Confocal)” value was ~100 RMF.

Take B2: the “RMF (Daudi Internalization by Confocal)” value was ~150 RMF.

Take B3: the “RMF (Daudi Internalization by Confocal)” value was ~200 RMF.

Consider B4, for which the “RMF (Daudi Internalization by Confocal)” value is ~100 RMF.

As to B5, the “RMF (Daudi Internalization by Confocal)” value is ~150 RMF.

Turning to B6, the “RMF (Daudi Internalization by Confocal)” value is ~100 RMF.

Consider B7, for which the “RMF (Daudi Internalization by Confocal)” value was ~200 RMF.

With B8, the “RMF (Daudi Internalization by Confocal)” value was ~200 RMF.

For the next test, the target named is T2, recombinant CD22 extracellular domain.
T2 construct: Kept apart from m18, which is cell-surface CD22; also called CD22 (analyte in the BIAcore runs); CD22 ECD
Description: ELISA on plates coated with recombinant CD22 extracellular domain (coating 2, 0.2, 0.02 or 0.002 ug/ml per paragraph 227; the sheet does not say which), anti-human IgG-HRP, read at 450 nm. The procedure: Nunc-Immuno MaxiSorp 96 well plates were coated with 100 μl of 2 μg/ml, 0.2 μg/ml, 0.02 μg/ml or 0.002 μg/ml recombinant CD22 extracellular domain (PeproTech, Inc. catalog number 100-01 in coating solution (sodium bicarbonate in PBS). The plates were covered with plate sealer and incubated at 4° C. overnight. Plates were emptied and the residual liquid tapped out on paper towels. 200 μl washing solution (0.05% Tween-20 in PBS) was added and shaken at 200 RPM for 5 min at room temperature. The plates were emptied and residual liquid tapped out on paper towels. 200 μl blocking solution (2% Carnation milk in PBS) was added and shaken at 200 RPM for one hour at room temperature. Plates were emptied and residual liquid tapped out on paper towels. 100 μl of diluted samples containing VM1000, VM1001, VM1002, VM1003, VM1004, VM1005, VM1006, VM1007, VM1008, VM1009, VM1010, VM1011, VM1012, VM1013, VM1014, and VM1015 antibodies for ELISA were used. The samples were shaken at 200 RPM for one hour at room temperature; plates emptied and residual liquid tapped out on paper towels. 200 μl washing solution (0.05% Tween-20 in PBS) was added, shaken at 200 RPM for 5 min at room temperature; plates emptied and residual liquid tapped out on paper towels. This process was repeated three times. 100 μl of 1:2500 dilution of anti-human IgG conjugated with HRP diluted in block solution (2% Carnation milk in PBS) was added for all samples. 100 μl of 1:2500 dilution of anti-rabbit IgG conjugated with HRP diluted in block solution (2% Carnation milk in PBS) was added for control antibody. The contents were shaken at 200 RPM for one hour at room temperature, plates emptied and residue liquid tapped out on paper towels. 200 μl washing solution (0.05% Tween-20 in PBS) was added, shaken at 200 RPM for 5 min at room temperature; plates emptied and residual liquid tapped out on paper towels. This process was repeated three times. 100 μl TMB substrate solution was added, and incubated at room temperature. The reaction was stopped with 1 N HCl, and the plate read at 450 nm to determine relative binding affinity (FIG. 17).
For orientation: An ELISA detects its analyte on a solid surface through an enzyme-linked reagent.
For B1, the “ELISA OD 450” value was 0.517.

Consider B2, for which the “ELISA OD 450” value was 0.495.

Consider B3, for which the “ELISA OD 450” value worked out at 0.15.

In the case of B4, the “ELISA OD 450” value amounted to 0.444.

For B5, the “ELISA OD 450” value was found to be 0.56.

For B6, the “ELISA OD 450” value was 0.386.

As to B7, the “ELISA OD 450” value came out at 0.638.

Regarding B8, the “ELISA OD 450” value stood at 0.538.
